In patent US20240197828A1, “Chimeric molecule to treat sepsis and other inflammatory conditions” (THE FEINSTEIN INSTITUTES FOR MEDICAL RESEARCH, priority 2022, published 2024) one finds Kd data, which are given here for 1 molecule.

What is called Kd is a measure of binding affinity in units of concentration.

In this assay the target is T1, rmCIRP (Mus musculus, UniProt P60824).
T1 construct: purchased Cubasio Technology LLC CSB-EP613483He0
T1 sequence (P60824 1-172): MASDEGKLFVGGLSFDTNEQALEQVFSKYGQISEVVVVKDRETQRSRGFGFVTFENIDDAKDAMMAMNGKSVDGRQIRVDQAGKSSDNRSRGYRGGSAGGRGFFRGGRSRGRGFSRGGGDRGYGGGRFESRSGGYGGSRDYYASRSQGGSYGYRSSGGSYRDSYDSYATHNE
Description: Surface plasmon resonance (Biacore/OpenSPR) binding to rmCIRP. The settings on record: rmCIRP immobilized, rmMFG-E8 analyte 15.7 to 250 nM, DPBS with Ca/Mg, 1% BSA, pH 7.4; read-out: equilibrium dissociation KD between rmCIRP and rmMFG-E8. The arrangement: species or system murine. The text has this:
Computational modeling was used to determine the likely domain of MFG-E8's binding to eCIRP. The known amino acid (AA) sequence of this domain was used to develop and test potential therapeutic peptides. An MFG-E8 derived oligopeptide, MOP3, was developed based on 15 AA from MFG-E8 discoidin 2 domain (mimicking MFG-E8's C-terminal) and tagged with the 3 AA, RGD, (mimicking MFG-E8's binding capacity for the integrin receptor at the N-terminal). Binding of MOP3 to CIRP was quantified using Surface Plasmon Resonance (SPR) analysis. Macrophages (RAW264.7 cells) were treated with FITC-recombinant mouse (rm)-CIRP or co-incubated MOP3 and FITC-rmCIRP with and without a. Br-integrin Ab. After 1 h, cells were fixed and analyzed for intracellular FITC-rmCIRP by flow cytometry. Macrophages were stimulated with rmCIRP or co-incubated mixture of MOP3 and rmCIRP. After 4 h, cell culture supernatants were analyzed for inflammatory cytokine, TNFα. […]
To examine the direct interaction between rmCIRP and rmMFG-E8, surface plasmon resonance (SPR), OpenSPR (Nicoya), was performed between rmCIRP and rmMFG-E8. rmCIRP was immobilized on carboxyl sensor and rmMFG-E8 was injected as an analyte in concentrations of 15.7 nM to 250 nM. […] To evaluate binding, the analyte was injected into flow cell-1 and flow cell-2 and increasing concentrations and real-time interaction data were analyzed by TraceDrawer (Nicoya). […]
A general note: Surface plasmon resonance follows binding to a sensor surface in real time, without labels.

B1: milk fat globule-epidermal growth factor—factor VIII (protein, listed as Mus musculus)
chain: MQVSRVLAALCGMLLCASGLFAASGDFCDSSLCLNGGTCLTGQDNDIYCLCPEGFTGLVCNETERGPCSPNPCYNDAKCLVTLDTQRGDIFTEYICQCPVGYSGIHCETETNYYNLDGEYMFTTAVPNTAVPTPAPTPDLSNNLASRCSTQLGMEGGAIADSQISASSVYMGFMGLQRWGPELARLYRTGIVNAWTASNYDSKPWIQVNLLRKMRVSGVMTQGASRAGRAEYLKTFKVAYSLDGRKFEFIQDESGGDKEFLGNLDNNSLKVNMFNPTLEAQYIKLYPVSCHRGCTLRFELLGCELHGCSEPLGLKNNTIPDSQMSASSSYKTWNLRAFGWYPHLGRLDNQGKINAWTAQSNSAKEWLQVDLGTQRQVTGIITQGARDFGHIQYVASYKVAHSDDGVQWTVYEEQGSSKVFQGNLDNNSHKKNIFEKPFMARYVRVLPVSWHNRITLRLELLGC
With B1, the Kd is 200 nM.
